Measured values from US20250188188A1.

Experiments:
[1] = molecular target: active human C1s purified from human serum (CompTech, Tyler, TX, catalog number A104) (human) (UniProt P09871); experiment: SPR, antibody captured via anti-human Fc, C1s in solution
[2] = molecular target: active human C1s purified from human serum (CompTech, Tyler, TX, catalog number A104) (human) (UniProt P09871); experiment: cell-based or functional assay

active human C1s purified from human serum (CompTech, Tyler, TX, catalog number A104) (human), sequence (P09871 16-437, chain 1 of 2): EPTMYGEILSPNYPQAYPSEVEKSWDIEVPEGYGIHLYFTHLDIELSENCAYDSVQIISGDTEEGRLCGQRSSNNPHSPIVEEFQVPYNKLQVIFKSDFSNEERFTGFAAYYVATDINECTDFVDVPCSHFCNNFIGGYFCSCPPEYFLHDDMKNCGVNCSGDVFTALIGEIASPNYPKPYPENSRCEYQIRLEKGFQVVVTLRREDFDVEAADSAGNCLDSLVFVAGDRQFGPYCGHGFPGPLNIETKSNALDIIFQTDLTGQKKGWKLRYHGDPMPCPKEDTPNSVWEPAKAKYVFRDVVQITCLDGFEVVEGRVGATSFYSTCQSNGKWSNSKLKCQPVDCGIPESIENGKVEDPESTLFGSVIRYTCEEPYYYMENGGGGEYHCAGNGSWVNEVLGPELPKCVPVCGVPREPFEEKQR
active human C1s purified from human serum (CompTech, Tyler, TX, catalog number A104) (human), sequence (P09871 438-688, chain 2 of 2): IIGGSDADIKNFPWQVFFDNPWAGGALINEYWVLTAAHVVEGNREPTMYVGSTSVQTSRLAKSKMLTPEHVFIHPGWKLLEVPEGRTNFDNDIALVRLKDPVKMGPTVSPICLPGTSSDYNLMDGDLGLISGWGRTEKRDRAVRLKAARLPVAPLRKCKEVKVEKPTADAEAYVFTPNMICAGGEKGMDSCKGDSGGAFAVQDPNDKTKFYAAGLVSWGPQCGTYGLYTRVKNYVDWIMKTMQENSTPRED

B1: recombinant TNT020 (antibody, from another filing, V domains shown)
VH: QVQLVQSGAEVKKPGASVKLSCTASGFNIKDDYIHWVKQAPGQGLEWIGRIDPADGHTKYAPKFQVKVTITADTSTSTAYLELSSLRSEDTAVYYCARYGYGREVFDYWGQGTTVTVSS
VL: DIVLTQSPDSLAVSLGERATISCKASQSVDYDGDSYMNWYQQKPGQPPKILIYDASNLESGIPARFSGSGSGTDFTLTISSLEPEDFAIYYCQQSNEDPWTFGGGTKVEIKR
Kd [1]: 3.77 nM | koff [1]: 0.00134 s⁻¹ | kon [1]: 357000 M⁻¹ s⁻¹ | IC50, inhibition of C3b deposition on sensitized hRBCs in 7.5% human serum (flow cytometry), Donor A [2]: 52.9 nM | IC50, inhibition of C3b deposition on sensitized hRBCs in 7.5% human serum (flow cytometry), Donor B (1) [2]: 238 nM | IC50, inhibition of C3b deposition on sensitized hRBCs in 7.5% human serum (flow cytometry), Donor B (2) [2]: 688 nM | IC50, inhibition of sensitized hRBC lysis in 25% human serum, Donor 1 [2]: 20.9 nM | IC50, inhibition of sensitized hRBC lysis in 25% human serum, Donor 2 [2]: 30.7 nM | IC50, inhibition of sensitized hRBC lysis in 25% human serum, Donor 3 [2]: 14.6 nM
